Data reported in patent publication US20140079774A1.
Where no end group is shown, it is not given here.

Target: Met (hepatocyte growth factor receptor, c-Met) on Hep3B cells (human) (UniProt P08581)
Assay: flow cytometry saturation binding on Hep3B (cytochalasin D pre-treated), specific binding after subtraction of binding in saturating HGF; 0.015 wt % MC40 (~6 peptides/particle)

Sequence of UniProt P08581 (P08581 25-1390): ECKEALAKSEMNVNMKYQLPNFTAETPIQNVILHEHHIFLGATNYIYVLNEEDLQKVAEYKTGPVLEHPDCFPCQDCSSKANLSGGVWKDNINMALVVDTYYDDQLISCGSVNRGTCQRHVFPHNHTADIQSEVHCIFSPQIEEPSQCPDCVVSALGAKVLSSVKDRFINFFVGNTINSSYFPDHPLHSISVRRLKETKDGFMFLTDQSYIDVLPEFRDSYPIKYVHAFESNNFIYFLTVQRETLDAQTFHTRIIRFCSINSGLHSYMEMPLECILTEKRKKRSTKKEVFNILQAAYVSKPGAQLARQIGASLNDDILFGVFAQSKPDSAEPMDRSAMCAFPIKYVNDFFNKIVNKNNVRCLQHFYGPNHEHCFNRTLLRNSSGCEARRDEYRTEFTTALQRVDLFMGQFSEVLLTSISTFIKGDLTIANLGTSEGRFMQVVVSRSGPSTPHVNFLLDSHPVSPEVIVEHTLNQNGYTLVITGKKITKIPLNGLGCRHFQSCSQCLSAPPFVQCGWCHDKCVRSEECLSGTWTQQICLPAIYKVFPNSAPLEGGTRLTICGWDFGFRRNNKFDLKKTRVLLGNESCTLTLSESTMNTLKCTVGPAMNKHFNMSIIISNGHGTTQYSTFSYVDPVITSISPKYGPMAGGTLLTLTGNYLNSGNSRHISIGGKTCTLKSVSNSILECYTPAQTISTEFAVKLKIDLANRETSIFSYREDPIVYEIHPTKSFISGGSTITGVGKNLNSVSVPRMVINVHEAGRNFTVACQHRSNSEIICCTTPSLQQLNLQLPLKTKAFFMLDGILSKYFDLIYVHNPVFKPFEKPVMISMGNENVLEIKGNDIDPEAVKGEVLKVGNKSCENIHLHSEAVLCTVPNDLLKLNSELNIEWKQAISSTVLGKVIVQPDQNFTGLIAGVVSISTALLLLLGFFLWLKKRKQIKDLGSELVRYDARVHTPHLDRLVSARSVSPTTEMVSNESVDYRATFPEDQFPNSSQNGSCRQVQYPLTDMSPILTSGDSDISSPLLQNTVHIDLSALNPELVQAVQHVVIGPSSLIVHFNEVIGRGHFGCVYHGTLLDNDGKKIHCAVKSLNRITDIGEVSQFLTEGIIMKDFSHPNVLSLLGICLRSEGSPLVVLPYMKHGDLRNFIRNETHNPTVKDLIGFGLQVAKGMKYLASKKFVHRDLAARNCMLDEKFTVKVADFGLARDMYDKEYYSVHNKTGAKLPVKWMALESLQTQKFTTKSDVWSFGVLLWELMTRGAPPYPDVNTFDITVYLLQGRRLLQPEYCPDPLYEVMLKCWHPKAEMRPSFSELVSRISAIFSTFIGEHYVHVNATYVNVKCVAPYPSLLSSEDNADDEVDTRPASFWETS

B1: MC40-targeted protocells (mesoporous silica nanoparticle-supported lipid bilayers displaying the MC40 targeting peptide) (peptide, not shown: small tags and cut ends)
peptide: ASVHFPPC
modifications: also: C-terminal Cys conjugated via crosslinker to DOPE in the lipid bilayer of a mesoporous silica protocell
- Kd: 1.05 nM
